From paper PMC8133392

What was measured:
Test in all cases: other fluorescence titration
H3K4me3 peptide = target: H3K4me3 peptide
[1] = target: unmodified H3 (aa 1–12) peptide (UniProt P68431)
H3K4ac peptide = target: H3K4ac peptide

Kd (H3K4me3 peptide): 4.8 µM
Kd [1]: 4.3 µM
Kd (H3K4ac peptide): 11 µM
Substance: ZZEF1ZZ2 with H1877 replaced by tryptophan (for tryptophan fluorescence) (domain or fragment)
